Assay results from PMC11321319, “Shy is a proteobacterial steroid hydratase which catalyzes steroid side chain degradation without requiring a catalytically inert partner domain” (The Journal of Biological Chemistry, 2024).

Experiments:
[1] = system: T1, C/C=C/C(=O)SCCNC(=O)CCNC(=O)[C@H](O)C(C)(C)COP(=O)(O)OP(=O)(O)OC[C@H]1O[C@@H](n2cnc3c(N)ncnc32)[C@H](O)[C@@H]1OP(=O)(O)O; assay: purified protein; assay type: biochemical, Comamonas testosteroni; settings: 100 mM sodium Hepes pH 7.5, 25 °C
T1 construct: C-terminal MaoC domain only (DUF35 removed), His-tagged (pET28a NdeI/HindIII), from E. coli BL21 LOBSTR; homodimer

[2] = system: T2, C[C@H](/C=C/C(=O)SCCNC(=O)CCNC(=O)[C@H](O)C(C)(C)COP(=O)(O)OP(=O)(O)OC[C@H]1O[C@@H](n2cnc3c(N)ncnc32)[C@H](O)[C@@H]1OP(=O)(O)O)[C@H]1CC[C@H]2[C@@H]3[C@H](O)C[C@@H]4C[C@H](O)CC[C@]4(C)[C@H]3C[C@H](O)[C@]12C; assay: purified protein; assay type: biochemical, Comamonas testosteroni; settings: 100 mM sodium Hepes pH 7.5, 25 °C
T2 construct: C-terminal MaoC domain only (DUF35 removed), His-tagged (pET28a NdeI/HindIII), from E. coli BL21 LOBSTR; homodimer

[3] = target: the molecule itself; assay: SEC; analytical size-exclusion chromatography, Superdex 200, 20 mM sodium Hepes pH 7.5, 0.15 M NaCl; native molecular weight from a standard curve
purified protein [4] = substrate: C[C@H](C(O)CC(=O)SCCNC(=O)CCNC(=O)[C@H](O)C(C)(C)COP(=O)(O)OP(=O)(O)OC[C@H]1O[C@@H](n2cnc3c(N)ncnc32)[C@H](O)[C@@H]1OP(=O)(O)O)[C@H]1CC[C@H]2[C@@H]3[C@H](O)C[C@@H]4C[C@H](O)CC[C@]4(C)[C@H]3C[C@H](O)[C@]12C; assay: purified protein; assay type: biochemical, Comamonas testosteroni; settings: 100 mM sodium Hepes pH 7.5, 25 °C, 1 mM NAD+, 7 nM Sad (coupling enzyme)
purified protein [5] = substrate: C[C@H](/C=C/C(=O)SCCNC(=O)CCNC(=O)[C@H](O)C(C)(C)COP(=O)(O)OP(=O)(O)OC[C@H]1O[C@@H](n2cnc3c(N)ncnc32)[C@H](O)[C@@H]1OP(=O)(O)O)[C@H]1CC[C@H]2[C@@H]3[C@H](O)C[C@@H]4C[C@H](O)CC[C@]4(C)[C@H]3C[C@H](O)[C@]12C; assay: purified protein; assay type: biochemical, Comamonas testosteroni; settings: 100 mM sodium Hepes pH 7.5, 25 °C
[6] = target: T3, N-terminal His-tagged Sal (side chain aldolase / steroid aldolase) from Comamonas testosteroni KF-1 (Comamonas testosteroni KF-1, UniProt B7X4S8 1-404); assay: SEC; analytical size-exclusion chromatography, Superdex 200, 20 mM sodium Hepes pH 7.5, 0.15 M NaCl; native molecular weight from a standard curve; settings: both partners purified
T3 construct: gene amplified from genomic DNA; theoretical molecular weight of tagged Sal 46.08 kDa; Cloned into pMCSG7 by ligation independent cloning; source: E. coli BL21 LOBSTR (pMCSG7), coexpressed with untagged Shy or its truncated forms; in cell extract, then purified on Ni-NTA; not shown: His tag, N-terminal, kept
T3 sequence (looked up): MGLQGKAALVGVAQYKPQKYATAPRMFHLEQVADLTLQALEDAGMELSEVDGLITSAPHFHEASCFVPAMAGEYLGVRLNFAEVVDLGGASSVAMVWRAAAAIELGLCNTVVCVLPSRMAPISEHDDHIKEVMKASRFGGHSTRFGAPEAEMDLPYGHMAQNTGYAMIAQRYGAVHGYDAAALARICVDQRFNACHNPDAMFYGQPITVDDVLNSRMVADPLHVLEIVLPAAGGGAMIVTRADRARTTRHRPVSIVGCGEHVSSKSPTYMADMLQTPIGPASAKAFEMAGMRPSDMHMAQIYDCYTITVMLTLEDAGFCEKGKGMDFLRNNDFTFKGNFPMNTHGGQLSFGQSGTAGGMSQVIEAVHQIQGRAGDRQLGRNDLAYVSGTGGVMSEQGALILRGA

purified protein [7] = substrate: C/C=C/C(=O)SCCNC(=O)CCNC(=O)[C@H](O)C(C)(C)COP(=O)(O)OP(=O)(O)OC[C@H]1O[C@@H](n2cnc3c(N)ncnc32)[C@H](O)[C@@H]1OP(=O)(O)O; assay: purified protein; assay type: biochemical, Comamonas testosteroni; settings: 100 mM sodium Hepes pH 7.5, 25 °C
purified protein [8] = substrate: C[C@H](/C=C/C(=O)SCCNC(=O)CCNC(=O)[C@H](O)C(C)(C)COP(=O)(O)OP(=O)(O)OC[C@H]1O[C@@H](n2cnc3c(N)ncnc32)[C@H](O)[C@@H]1OP(=O)(O)O)[C@H]1CC[C@H]2[C@@H]3CC=C4C[C@@H](O)CC[C@]4(C)[C@H]3CC[C@]12C; assay: purified protein; assay type: biochemical, Comamonas testosteroni; settings: 100 mM sodium Hepes pH 7.5, 25 °C

Q: How did the Km [1] turn out when “ShyMaoC (Comamonas testosteroni KF-1; I309F)” was run?
A: Its Km is 65.0 ± 3.25 µM.

Q: And the kcat [1]?
A: The kcat was 0.00555 ± 0.000129 s⁻¹.

Q: What about the kcat/Km [1] of the same molecule?
A: Its kcat/Km is 85.4 ± 4.71 M⁻¹ s⁻¹.

Q: What about the Km [2] of the same molecule?
A: Its Km is 12.3 ± 1.05 µM.

Q: What about the kcat [2] of the same molecule?
A: The kcat was 67.2 ± 2.77 s⁻¹.

Q: What about the kcat/Km [2] of the same molecule?
A: The kcat/Km was 5.46e+06 ± 518000 M⁻¹ s⁻¹.

B1: His-tagged Shy_(MaoC), MaoC domain of Shy (domain or fragment, Comamonas testosteroni KF-1, UniProt B7X4S7 148-312, looked up)
chain: EVAVVEQSVAAKRRISVKDIEAMKSLVSEEYSPWSNEFTVSQEVIDEFARLSGDDYWIHTDPVQAREKSPFGTTIAHGALVQVLASQLRIPLDYEVVDFNNMVNYGSDRLRFPTPVPSGCKIRARARIKAVEQVRSGVQATMELNIHVVGQDRPAVINDLVILYM
notes: theoretical molecular weight of the tagged construct 20.5 kDa; Inserted into pET28a between NdeI and HindIII; source: E. coli BL21 LOBSTR (pET28a), purified (Ni-NTA)
Q: With B1 as the molecule, how does the “stoichiometry N” value [3] read?
A: The value was 2.

B2: Shy-Sal (aldolase site in Sal) (Comamonas testosteroni KF-1) (protein)
chain: MGLQGKAALVGVAQYKPQKYATAPRMFHLEQVADLTLQALEDAGMELSEVDGLITSAPHFHEASCFVPAMAGEYLGVRLNFAEVVDLGGASSVAMVWRAAAAIELGLCNTVVCVLPSRMAPISEHDDHIKEVMKASRFGGHSTRFGAPEAEMDLPYGHMAQNTGYAMIAQRYGAVHGYDAAALARICVDQRFNACHNPDAMFYGQPITVDDVLNSRMVADPLHVLEIVLPAAGGGAMIVTRADRARTTRHRPVSIVGCGEHVSSKSPTYMADMLQTPIGPASAKAFEMAGMRPSDMHMAQIYDCYTITVMLTLEDAGFCEKGKGMDFLRNNDFTFKGNFPMNTHGGQLSFGQSGTAGGMSQVIEAVHQIQGRAGDRQLGRNDLAYVSGTGGVMSEQGALILRGA
notes: same complex as P1: N-terminally His-tagged Sal with untagged full-length Shy, from E. coli BL21 LOBSTR; 160 kDa heterotetramer; with Side chain hydratase Shy, bifunctional OB-fold (DUF35) / MaoC family dehydratase domain-containing protein
Q: Which results are given for B2?
A: Km (purified protein [4]): 8.12 ± 0.477 µM; kcat (purified protein [4]): 37.6 ± 0.8 s⁻¹; kcat/Km (purified protein [4]): 4.63e+06 ± 289000 M⁻¹ s⁻¹

B3: Untagged Shy (side chain hydratase) from Comamonas testosteroni KF-1 (enzyme, UniProt B7X4S7 1-312, looked up)
chain: MAWNKPLPHPTEISAPYWEGLKAHEVRIQQCDRGHSLFFPRTHCPTCGSRSLKWSKVSGEGTLYSFTVARIPTMPEFTDEMPQALAVIELREGVRINTTMVGVAPEALKVGMEVRPVFDERPGEVTLLRFTAHAGSHPSVIKADAESEVAVVEQSVAAKRRISVKDIEAMKSLVSEEYSPWSNEFTVSQEVIDEFARLSGDDYWIHTDPVQAREKSPFGTTIAHGALVQVLASQLRIPLDYEVVDFNNMVNYGSDRLRFPTPVPSGCKIRARARIKAVEQVRSGVQATMELNIHVVGQDRPAVINDLVILYM
notes: N-terminal DUF35 domain and C-terminal MaoC domain; theoretical molecular weight 34.81 kDa; called 'the full protein' in the discussion; source: E. coli BL21 LOBSTR (pBTLactac, tagless), coexpressed with His-tagged Sal; in cell extract, then copurified on Ni-NTA
Q: Which results are given for B3?
A: Km (purified protein [5]): 6.19 ± 0.446 µM; kcat (purified protein [5]): 163 ± 1.5 s⁻¹; kcat/Km (purified protein [5]): 2.64e+07 ± 1.91e+06 M⁻¹ s⁻¹; stoichiometry N [6]: 1 Shy per Sal (2:2 complex)

B4: ShyMaoC (Comamonas testosteroni KF-1) (protein)
chain: ESEVAVVEQSVAAKRRISVKDIEAMKSLVSEEYSPWSNEFTVSQEVIDEFARLSGDDYWIHTDPVQAREKSPFGTTIAHGALVQVLASQLRIPLDYEVVDFNNMVNYGSDRLRFPTPVPSGCKIRARARIKAVEQVRSGVQATMELNIHVVGQDRPAVINDLVILYM
notes: C-terminal MaoC domain only (DUF35 removed), His-tagged (pET28a NdeI/HindIII), from E. coli BL21 LOBSTR; homodimer
Q: Which results are given for B4?
A: Km (purified protein [7]): 63.6 ± 3.62 µM; kcat (purified protein [7]): 0.00412 ± 0.00011 s⁻¹; kcat/Km (purified protein [7]): 64.8 ± 4.07 M⁻¹ s⁻¹; Km (purified protein [8]): 6.71 ± 0.588 µM; kcat (purified protein [8]): 62.9 ± 2.32 s⁻¹; kcat/Km (purified protein [8]): 9.37e+06 ± 890000 M⁻¹ s⁻¹; Km (purified protein [5]): 6.14 ± 0.524 µM; kcat (purified protein [5]): 211 ± 6.71 s⁻¹; kcat/Km (purified protein [5]): 3.44e+07 ± 3.13e+06 M⁻¹ s⁻¹
